These results are taken from patent US20100016234A1, “SIGNAL PEPTIDES, NUCLEIC ACID MOLECULES AND METHODS FOR TREATMENT OF CARIES” (The Governing Council of the University of Toronto, published 2010).

Experiment [1] has as its target T1, S. mutans ComD protein (histidine kinase) (Streptococcus mutans).
T1 chain: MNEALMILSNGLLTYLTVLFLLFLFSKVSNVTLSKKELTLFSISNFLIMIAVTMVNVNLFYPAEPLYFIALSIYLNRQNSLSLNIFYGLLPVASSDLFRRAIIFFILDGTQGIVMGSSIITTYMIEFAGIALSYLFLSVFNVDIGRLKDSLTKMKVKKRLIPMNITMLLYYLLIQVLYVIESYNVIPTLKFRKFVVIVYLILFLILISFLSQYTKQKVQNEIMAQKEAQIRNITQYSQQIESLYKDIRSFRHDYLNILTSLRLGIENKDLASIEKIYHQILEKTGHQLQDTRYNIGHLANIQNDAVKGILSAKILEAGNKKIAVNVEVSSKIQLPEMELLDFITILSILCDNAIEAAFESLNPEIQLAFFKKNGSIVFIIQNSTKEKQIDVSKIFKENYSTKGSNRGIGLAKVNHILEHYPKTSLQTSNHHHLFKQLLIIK
Put plainly: cell-based or functional assay.

The target of experiment [2] is T1, S. mutans ComD protein (histidine …). Put plainly: cell-based or functional assay.

On to SGSLSTFFVLFNRSFTQALGK [Peptide analog B2], for which the “Transformation efficiency (vs no CSP), S. mutans wild-type UA159, 5 µg/ml peptide” value (shortened to “Transformation efficiency (vs no CSP)”) in experiment [1] was 4 fold increase (vs no CSP).

SGSLSTFFRLFNRSFTQAGK [Peptide analog G1]: the “Biofilm formation (SDM-glucose), S. mutans UA159, 5 µg/ml peptide” value (“Biofilm formation (SDM-glucose)” below) in experiment [2] was 24.4 % biomass (reduction). Besides, the “Transformation efficiency (vs no CSP)” value in experiment [1] was 848 fold increase (vs no CSP).

For SGTLSTFFRLFNRSFTQA [Peptide analog B3 (JH1005 CSP sequence)], in experiment [2], the “Biofilm formation (SDM-glucose)” value is 34.4 % biomass (reduction). Besides, in experiment [1], the “Transformation efficiency (vs no CSP)” value was 195 fold increase (vs no CSP).

In the case of SGSLTFFRLFNRSFTQALGK [Peptide analog E1], the “Transformation efficiency (vs no CSP)” value in experiment [1] is 791 fold increase (vs no CSP).

In the case of SGSLSTFFRLFNRSFTQLGK [Peptide analog H1], in experiment [1], the “Transformation efficiency (vs no CSP)” value is 18 fold decrease (vs no CSP).

In the case of SGSLSTFFALFNRSFTQALGK [Peptide analog C2], the “Transformation efficiency (vs no CSP)” value in experiment [1] is 32 fold increase (vs no CSP).

Take SGSLSTFFRLFNRSFTQALGK [S. mutans competence signal peptide (CSP), mature wild-type CSP sequence]: the “Transformation efficiency (vs no CSP)” value in experiment [1] is 1550 fold increase (vs no CSP).

In the case of SGSLSTFFRLFNRSFTALGK [Peptide analog A2], the “Transformation efficiency (vs no CSP)” value in experiment [1] is 125 fold increase (vs no CSP).

Turning to SGSLSTFFRLFNASFTQALGK [Peptide analog E2], the “Biofilm formation (SDM-glucose)” value in experiment [2] was 38.9 % biomass (reduction). Besides, the “Transformation efficiency (vs no CSP)” value in experiment [1] was 252 fold increase (vs no CSP).

In the case of SGSLSTFFRLFNRSFTQALK [Peptide analog F1], the “Biofilm formation (SDM-glucose)” value in experiment [2] is 36.7 % biomass (reduction). Moreover, the “Transformation efficiency (vs no CSP)” value in experiment [1] was 541 fold increase (vs no CSP).

As for SGSLSTFFRLFNVSFTQALGK [Peptide analog D2], the “Transformation efficiency (vs no CSP)” value in experiment [1] is 99 fold increase (vs no CSP).

In the case of SGSLSTFFRLFNRSFTQALGV [Peptide analog F2], in experiment [2], the “Biofilm formation (SDM-glucose)” value was 38.7 % biomass (reduction). For the same molecule, in experiment [1], the “Transformation efficiency (vs no CSP)” value is 543 fold increase (vs no CSP).

Consider SGSLSTFFRLFNRSFTQALGA [Peptide analog G2], for which the “Biofilm formation (SDM-glucose)” value in experiment [2] was 35.6 % biomass (reduction). Moreover, the “Transformation efficiency (vs no CSP)” value in experiment [1] is 56 fold increase (vs no CSP).

With SGSSTFFRLFNRSFTQALGK [Peptide analog D1], the “Transformation efficiency (vs no CSP)” value in experiment [1] was 275 fold increase (vs no CSP).
